Reference: patent US12312397B2, “Anti-O2 antibodies and uses thereof” (priority 2016, dated 2025)

What was measured:
[1] = test system: O2 LPS; assay: ELISA binding to O2 LPS; set-up: species or system Klebsiella pneumoniae; settings: secondary screening, ELISA
Method: (§1) The coated plates were incubated with cell culture supernatants from polyclonally stimulated lymphocytes (AMVBRA) or from monoclonal immortalized B cells (donor interrogations) containing fully human antibodies or with diluted plasma samples (PBMC donor selections) for 1 hour at room temperature. The plates were then washed with PBS containing 0.1% Tween-20 (PBS-T). Secondary antibody was added; either Alkaline Phosphatase-conjugated Goat Anti-Human IgG-AP (Southern Biotech, 2040-04, 1:1000 in PBS-B) or Peroxidase AffiniPure F(ab′)2 Fragment Goat Anti-Human IgG, Fc Fragment Specific (Jackson ImmunoResearch #309 036 098, 1:5000 in PBS-B) were used. Secondary antibodies were typically incubated for 1 h. Plates were washed three times with PBS-T, and P-NitroPhenyl Phosphate (pNPP, Sigma-Aldrich, cat #N2765-100TAB) or Sureblue (KPL, 53-00-03) substrates were added and incubated for 10 min or until the development of a colorimetric reaction. In the case of the HRP substrate Sureblue, the reaction was stopped by adding an equal volume of 0.2N HCl. The absorbance at 405 nm (pNPP) or 450 nm (Sureblue) was measured by a microplate reader (Biotek, Elx808).
(§2) The coated plates were incubated with serial dilutions of the monoclonal antibodies for 1 hour at room temperature. The plates were then washed with PBS containing 0.1% Tween-20 (PBS-T). Alkaline Phosphatase-conjugated Goat Anti-Human IgG (Southern Biotech, 2040-04, 1:1000 in PBS-B) was added. The secondary antibody reactions were incubated for 1 h. Plates were washed three times with PBS-T, and P-NitroPhenyl Phosphate (pNPP, Sigma-Aldrich, cat #N2765-100TAB) substrate was added and incubated for 30 min or until the development of a colorimetric reaction. The absorbance at 405 nm was measured by a microplate reader (Biotek, Elx808). The data was plotted with Graphpad Prism software. Representative mAbs from each class were tested for their binding to O1 LPS (FIG. 2A) and O2 LPS (FIG. 2B), and EC50 values were obtained (FIG. 2C). The majority of the anti-O2 LPS mAbs bound to both O1 and O2 LPS by ELISA. […] None of these LPS mAbs bound to the 03, 04, 05, 07, or 012 LPS serotypes (see e.g., FIG. 1A).

[2] = test system: O1 LPS activation of NF-κB in RAW264.7-lux cells; assay: LPS neutralization assay (NF-κB luciferase, RAW264.7-lux), O1 LPS; format: cell-based, murine; settings: for neutralizing activity against O1 LPS (NF-κB activation): human IgG1 format; for neutralization of LPS-O1: secondary screening
Method: (§3) Activation of TLR4 receptors by bacterial LPS leads to downstream activation of the NF-κB transcriptional regulator. A decrease in induction of NF-κB-responsive luciferase activity was used to quantify LPS neutralization activity by LPS mAbs. A murine RAW264.7 macrophage cell line was engineered to carry a firefly luciferase reporter gene under the control of an NF-κB-responsive promoter (RAW264.7-lux). Serially diluted antibody stocks were mixed with LPS in a 1:1 ratio and incubated at 4° C. for 1 hr. Antibody/LPS mixtures were then diluted 1:10 into assay plates containing pre-seeded RAW264.7-lux cells (4e5 cells/well), which were then placed at 37° C. with 5% CO2 for 2.5 hours. Following incubations, Steady Glo solution (Promega) was added to each well and incubated for another 20 min protected from light. The relative light units (RLUs) were measured using a multi-mode microplate reader (Synergy 2, Biotek or envision multilabel plate reader, Perkin Elmer). The percentage of inhibition was determined by comparing RLU derived from assays with no antibodies to RLU derived from assays with anti-K. pneumoniae mAbs and assays performed with a negative control mAb. […] All mAbs were tested in human IgG1 format.

[3] = test system: O2 LPS activation of NF-κB in RAW264.7-lux cells; assay: LPS neutralization assay (NF-κB luciferase, RAW264.7-lux), O2 LPS; format: cell-based, murine; set-up: key to LPS Neut O2: +++: Strongly positive activity; +: Positive activity; +/−: Somewhat positive depending upon the test conditions; settings: for LPS Neut O2: Table 7 summary; for neutralizing activity against O2 LPS (NF-κB activation): human IgG1 format; for neutralization of LPS-O2: secondary screening
Method: as §3

[4] = test system: K. pneumoniae 8570ΔcpsBLux (O2); assay: Opsonophagocytic killing (OPK) assay, O2 capsule mutant; format: cell-based, Klebsiella pneumoniae; set-up: key to D Capsule OPK O2: +++: Strongly positive activity; +: Positive activity; +/−: Somewhat positive depending upon the test conditions; settings: for D Capsule OPK O2: capsule mutant strain 8570ΔcpsB lux (O2); for OPK activity against O2 capsule mutant: secondary screening
Method: (§4) OPK activity of anti-O2 LPS mAbs was tested against O1 and O2 strains. Briefly, log phase cultures of luminescent K. pneumoniae strains 8570ΔcpsBLux (O2) and 43816ΔcpsBLux (O1) were diluted to ˜2×10^6 cells/ml. K. pneumoniae cells, 5e5/well dimethylformamide (DMF) differentiated HL-60 cells, cleared baby rabbit serum (1:10 Cedarlane), and a series dilution of antibodies (2 ng-2.5 μg/mL) were mixed in 96-well plates and incubated at 37° C. for two hours with shaking (250 rpm). The relative light units (RLUs) were then measured using a multi-mode microplate reader (Synergy 2, Biotek or envision multilabel plate reader, Perkin Elmer). The percentage of killing was determined by comparing RLU derived from assays with no antibodies to RLU derived from assays with anti-K. pneumoniae mAbs and assays performed with a negative control mAb. Positive killing was determined where the percentage of killing is above 40%.

[5] = test system: O1 LPS; assay: ELISA binding to O1 LPS; set-up: species or system Klebsiella pneumoniae; settings: secondary screening
Method: as §1, §2

[6] = test system: K. pneumoniae 43816ΔcpsBLux (O1); assay: Opsonophagocytic killing (OPK) assay, O1 capsule mutant; format: cell-based, Klebsiella pneumoniae; set-up: key to D Capsule OPK O1: +++: Strongly positive activity; +: Positive activity; +/−: Somewhat positive depending upon the test conditions; settings: capsule mutant strain 43816ΔcpsB lux (O1)
Method: as §4

Row | Molecule | binding to LPS-O2 [1] | neutralizing activity against O1 LPS (NF-κB activation) [2] | LPS Neut O2 [3] | neutralizing activity against O2 LPS (NF-κB activation) [3] | neutralization of LPS-O2 [3] | D Capsule OPK O2 [4] | OPK activity against O2 capsule mutant [4] | binding to LPS-O1 [5] | neutralization of LPS-O1 [2] | D Capsule OPK O1 [6]
1 | KPS24: Class III anti-O2 antigen human mAb; VH SEQ ID NO: 107, VL SEQ ID NO: 108 (antibody, V domains shown, Description of Artificial Sequence: SyntheticKPS24 VH polypeptide; Description of Artificial Sequence: SyntheticKPS24 VL polypeptide) VH: ELHLVESGGGLVKPGGSLRLSCAASGFTFKNAWMSWIRQAPGKGLEWVGRVKSEVDGGTTDYGVPVRGRFTISRDDSQSTLSLEMSSLQDDDTGVYYCRAFWSDFQTGYWGQGTLVTVSS VL: QSVLTQPPSVSAAPGQTVTIACSGSSSNIGSDSVSWFQQLPGTAPRVLMYENNKRPSGISDRFSGSKSGTSVTLGITGLQTGDEADYYCAAWDSSLRAYVFGSGTKVTVL | bound specifically | no activity | +/− | moderate neutralizing activity | neutralized | +++ | strong OPK activity |  |  | 
2 | KPN44: anti-O2 antigen human mAb; VH SEQ ID NO: 62, VL SEQ ID NO: 63 (antibody, V domains shown, Description of Artificial Sequence: SyntheticKPN44 VH polypeptide; Description of Artificial Sequence: SyntheticKPN44 VL polypeptide) VH: QVQLQESGPGLVKPSETLSLTCTVSGGSTSSYYWNWIRQAPGKPLQWIANIHHGGTTYYNPSLRSRVTMSLDTSNNQFSLKLTSVTAADTAVYFCARESDDGYRWNYFDYWGQGVLVTVSS VL: EIVLTQSPASLSLSPGDRATLSCRASQTITNYLAWYQHKPGQAPRLLIFDMSKRATGIPARFSGSGSGTDFTLTISSLEPEDFAVYYCQHRSNWPLFTFGPGTNVDIK | bind | blocked |  | blocked | neutralize |  | showed OPK activity | bind | neutralize | 
3 | KPS30: Class I anti-O2 antigen human mAb; VH SEQ ID NO: 125, VL SEQ ID NO: 126 (antibody, V domains shown, Description of Artificial Sequence: SyntheticKPS30 VH polypeptide; Description of Artificial Sequence: SyntheticKPS30 VL polypeptide) VH: EMQLVESGGGLVQPGVSLRLSCVDSGFSFSTSWLAWVRQAPGKGLEWLANIDPDGSTRNHVDSVRGRFTISRDNAKNSLYLQMNSLRAEDTAVYYCARDYAYNRFDYWGQGTMVTVSS VL: QSALTQPPSASGSPGQSVVISCTGTSSDIGANNYVSWYQQHPGKAPKLLLYEVNKRPSGVPDRFSASKSGNTASLTVSGLLAEDEADYYCCGYGGGRVFGGGTKLTVL | bound |  |  |  | neutralized | +++ | strong OPK activity | bound | neutralized | 
4 | KPN17: Class I anti-O2 antigen human mAb; VH SEQ ID NO: 71, VL SEQ ID NO: 72 (antibody, V domains shown, Description of Artificial Sequence: SyntheticKPN17 VH polypeptide; Description of Artificial Sequence: SyntheticKPN17 VL polypeptide) VH: EVQLVESGGGLVQPGGSLRLSCAASGFTFSHFWMHWVRQAPGQGLVWVARIDGSVTNLRYAGSVEGRFTISRDNAKNTLYLQMNSLRDEDTAVYYCARDLVGIGTPAGYGMDVWGQGTTVTVSS VL: DIQLTQSPSFLSASVGDRVTITCRASQGISTYLAWYQQKPGKAPKLLIYAASTLQSGVPSRFSGSGSGTEFTLTINSLQSEDFATYYCQQLTSHLYTFGQGTKLEIK | bind | no activity | +/− | moderate neutralizing activity | neutralize | + | showed OPK activity | bind |  | 
5 | KPL36: Class II anti-O2 antigen human mAb; VH SEQ ID NO: 189, VL SEQ ID NO: 192 (antibody, V domains shown, Description of Artificial Sequence: SyntheticKPL36 VH polypeptide; Description of Artificial Sequence: SyntheticKPL36 VL polypeptide) VH: EVQLVESGGGVVQSGGSLRLSCETSGFTFISSWMSWVRQAPGTGLEWVATINPDGTETPYADSLKGRFTISRDNTKKSLYLQIHSLRADDTAVYFCARNKAYNAHDFWGQGTLVMVSS VL: QSALTQPPSASGSPGQSVTISCTGTSSDVGGNNFVSWYQQYPGKAPKLIIYEVNKRPSGVPDRFSGSKSGNTASLTVSGLQAEDEADYYCGAFGGSKMFGGGTKLTVL | confirmed to bind | no activity | + | moderate neutralizing activity | neutralize | + |  | confirmed to bind |  | +
